Assay results from patent US20170008971A1.

Legend:
[1] = target: human epidermal growth factor receptor 2 (HER2) on cells (human) (UniProt P04626); assay: competitive Scatchard analysis, 125I-trastuzumab Fab tracer on SKBR-3 cells
[2] = target: CD3 on Jurkat cells (human) (UniProt P07766); assay: binding to Jurkat cells (data not shown; Scatchard assay presumed)

Kd [1]: 5.4 nM
Kd [2]: 4.7 nM
Substance: HER2 T cell dependent bispecific antibody (HER2-TDB), huIgG1, knob arm humanized anti-HER2 4D5 (trastuzumab), hole arm humanized anti-CD3 UCHT1.v9
